Assay results taken from patent publication US20100204099A1 (ALBERT EINSTEIN COLLEGE OF MEDICINE OF YESHIVA UNIVERSITY, published 2010).
Where no end group is shown, it is not given here.

B1: Humanin (peptide)
peptide: MAPRGFSCLLLLTSEIDLPVKRRA
notes: 50 ng was spotted on nitrocellulose in the dot blot; also called HN; human humanin

Assays:
[1] = molecular target: T1, IGF binding protein-3 (IGFBP-3) (human, UniProt P17936 28-291, 125-I-labeled when used as probe in the dot blot); experiment: dot blot on nitrocellulose probed with 125-I-labeled IGFBP-3, autoradiography and densitometry (FIG. 17A)
T1 construct: also called hIGFBP-3; non glycosylated hIGFBP-3

[2] = molecular target: T1, IGF binding protein-3 (IGFBP-3); experiment: dot blot of peptides probed with 125-I-labeled IGFBP-3 (FIG. 17A)

T1 sequence (P17936 28-291 limits assumed): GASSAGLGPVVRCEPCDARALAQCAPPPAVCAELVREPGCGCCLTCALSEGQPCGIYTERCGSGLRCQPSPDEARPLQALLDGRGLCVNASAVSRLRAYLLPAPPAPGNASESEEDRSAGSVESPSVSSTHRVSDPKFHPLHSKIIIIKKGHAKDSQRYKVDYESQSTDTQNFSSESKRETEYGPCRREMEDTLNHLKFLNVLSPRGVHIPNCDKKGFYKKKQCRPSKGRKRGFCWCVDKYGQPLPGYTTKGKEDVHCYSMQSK

| Binder | binding result [1] | binding result [2] |
| --- | --- | --- |
| MAPRGASCLLLLTSEIDLPVKRRA (also called F6A HN; F6A-HN) [Humanin analog F6A] | no binding (tested: 50 ng of peptide blotted) |  |
| MAPRGASCLLLLTGEIDLPVKRRA (not fully specified, also called F6AHNG; HN) [Humanin analog HNGF6A] | no binding (tested: 50 ng of peptide blotted) |  |
| B1 |  | binds |
